The record followed here is article PMC10308451.

The target in the data set is T1, EhDbr1 (RNA lariat debranching enzyme) (Entamoeba histolytica, UniProt C4M1P9 1-354).
T1 sequence: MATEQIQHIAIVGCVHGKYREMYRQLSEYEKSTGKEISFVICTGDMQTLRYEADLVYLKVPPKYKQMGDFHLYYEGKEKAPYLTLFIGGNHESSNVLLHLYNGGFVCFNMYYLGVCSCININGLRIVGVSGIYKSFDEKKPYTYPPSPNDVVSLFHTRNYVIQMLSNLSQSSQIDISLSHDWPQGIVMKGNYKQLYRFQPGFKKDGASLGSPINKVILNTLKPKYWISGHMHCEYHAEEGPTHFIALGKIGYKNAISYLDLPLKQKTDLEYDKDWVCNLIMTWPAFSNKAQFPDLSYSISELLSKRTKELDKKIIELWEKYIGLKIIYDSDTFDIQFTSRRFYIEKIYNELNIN
The data set is described as follows: X-ray crystallography.

GUGUG (ssRNA, 5'-terminal phosphorothioate) [PS-bRNA-1 5' product (hydrolyzed 2'-5' fragment, 5'-PS-GUGUG-3')]: the binding result was “binds”.
